The values below come from patent US20230348572A1 (ROSALIND FRANKLIN INSTITUTE, published 2023).

Positions count from the first letter of the chain named. Read-outs that look alike come from different tables or passages of the source.

Assay [1] has as its target T1, SARS-CoV-2 spike glycoprotein ectodomain (prefusion-stabilized, trimeric) (SARS-CoV-2, UniProt P0DTC2 14-1208).
T1 construct: range 1-1208; also called spike protein; Spike ectodomain
Description: ITC, nanobody titrated into trimeric Spike, 1:1 nanobody:monomer. A general note: Isothermal titration calorimetry measures the heat released or taken up as one component is titrated into another.

Assay [2] concerns the target T1, SARS-CoV-2 spike glycoprotein ….
For assay [3] the target is unchanged. Description: ITC, Spike in the cell, H11-H4 in the syringe.
Assay [4] has the same target. This is another data set of the same source.

B1: NbRBD_H11-H4 (VHH)
VHH: QVQLVESGGGLMQAGGSLRLSCAVSGRTFSTAAMGWFRQAPGKEREFVAAIRWSGGSAYYADSVKGRFTISRDKAKNTVYLQMNSLKYEDTAVYYCAQTHYVSYLLSDYATWPYDYWGQGTQVTVSS
notes: also called nanobody H11-H4
Usually Kd stands for the constant that tells how readily two partners part at equilibrium. Lower therefore signals tighter binding. In the case of B1, the affinity in assay [1], expressed as Kd, was 44 nM. In addition, in assay [2], the ΔH is -74 kJmol-1 and the ΔS was -107 Jmol-1K-1. Moreover, in assay [3], the ΔH was -73 kJmol-1 and the ΔS is -103 Jmol-1K-1.

B2: NbRBD_H11-D4 (VHH)
VHH: B1 VHH with Q98R, H100E, Y101N, S103R, Y104S
notes: also called nanobody H11-D4
B2 came in with a Kd in assay [1] of 79 nM. In assay [4], the ΔH is -81.2 kJmol-1 and the ΔS was -136 Jmol-1K-1.
